In the supplement of paper PMC6757056:
± gives the standard deviation of the averaged measurements.

B1: library; a variant is named by its letters at N, in order (parent)
chain: GCUGUCACCGGUGCUUGGUACGUUAUAUUCAGCCGGUCUGAUGAGUCUNNNNNNAGACGAAACAGC

Tests used:
[1] = variants of: B1; assay: normalized RNA/DNA level without ligand (relative to sTRSVctl = 100) (log10 (% of sTRSVctl)); HEK293T overexpressing SLC46A1; higher = less ribozyme self-cleavage, higher mRNA level; conditions: without (6R,S)-folinic acid; ligand present: no
How it was run: (§1)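 RNA level was computed as RNA reads over DNA reads divided by a spiked-in non-cleaving sequence or by the top sequences, then scaled and log-transformed. Scaling was ×100 with log10, the top group was 25 sequences, and the threshold was ≥100 DNA reads. The reads came from HEK293T cells transfected at 4 µg per 6-well well with ribozyme switch library plasmids (mCherry, or eGFP in some ligand experiments). Total RNA was extracted with EDTA 72 h after transfection, with any ligand added 1 h before it.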

[2] = variants of: B1; assay: normalized RNA/DNA level with ligand (relative to sTRSVctl = 100) (log10 (% of sTRSVctl)); HEK293T overexpressing SLC46A1; ligand concentration (+) RNA-Seq: 6 mM; higher = less ribozyme self-cleavage, higher mRNA level; conditions: with (6R,S)-folinic acid; ligand present: yes
How it was run: as §1

Variant	normalized RNA/DNA level without ligand (log10) [1]	normalized RNA/DNA level with ligand (log10) [2]
GCUACC	2.06 ± 0.023	2.05 ± 0.033
GCUACU	2.019 ± 0.0099	1.98 ± 0.043
GCUACG	2.026 ± 0.0068	2.065 ± 0.0045
CCUCAU	2.03 ± 0.025	2 ± 0.054
CCUCAG	1.94 ± 0.024	1.96 ± 0.0042
CCUCAC	2.0541 ± 0.0006	2.027 ± 0.013
CCUCAA	2.0335 ± 0.00095	2 ± 0.059
GCGUAU	2.03 ± 0.026	2.06 ± 0.022
GCUAUC	2.083 ± 0.0023	2.013 ± 0.019
GCUAUG	1.99 ± 0.022	2.02 ± 0.035
GCUAUU	2.054 ± 0.013	2.04 ± 0.041
GCUCCG	2.027 ± 0.0072	2.05 ± 0.055
GCUCCA	2.02 ± 0.019	2.03 ± 0.037
GCUCCU	2.09 ± 0.024	2.07 ± 0.04
GCUCCC	2.06 ± 0.031	2.06 ± 0.036
UCGGCA	2.03 ± 0.029	2.04 ± 0.034
UCGGCG	1.997 ± 0.011	2.05 ± 0.046
CCGUAG	1.93 ± 0.035	1.99 ± 0.022
CCGUAA	1.981 ± 0.016	1.98 ± 0.032
CCGUAU	2.016 ± 0.0098	2.022 ± 0.0084
CCGUAC	1.99 ± 0.019	2.014 ± 0.017
UCUAAU	1.974 ± 0.0063	2.005 ± 0.0055
UCUAAG	1.815 ± 0.014	2 ± 0.045

Variant	normalized RNA/DNA level without ligand (log10) [1]	normalized RNA/DNA level with ligand (log10) [2]
UCUAAC	2.013 ± 0.0071	2.031 ± 0.018
UCUCUA	1.997 ± 0.0062	2.01 ± 0.04
UCUCUG	1.89 ± 0.011	1.96 ± 0.027
UCUCUU	2.06 ± 0.034	2.06 ± 0.059
UCUCUC	2.076 ± 0.015	2.04 ± 0.035
UCGUUU	1.99 ± 0.03	2.028 ± 0.0051
UCGUUA	2.009 ± 0.0058	2.04 ± 0.038
UCGUUC	2.0303 ± 0.002	2.01 ± 0.034
UCGGAC	2.048 ± 0.0021	2.0514 ± 0.00022
CCGUGA	2.03 ± 0.021	2.05 ± 0.037
CCGUGG	2.022 ± 0.02	2.06 ± 0.023
CCGUGU	2.039 ± 0.0037	2.048 ± 0.0091
CCGUGC	2.03 ± 0.048	1.99 ± 0.041
GCGUCG	2.042 ± 0.0035	2.07 ± 0.035
GCGUCA	2.06 ± 0.025	2.08 ± 0.031
GCGUCU	2.064 ± 0.0062	2.07 ± 0.034
GCGUCC	2.01 ± 0.0034	1.997 ± 0.0077
ACGCGU	2.022 ± 0.0046	2.02 ± 0.018
UCGUAG	1.8378 ± 0.0006	2 ± 0.052
UCGUAU	1.97 ± 0.029	2 ± 0.07
UCUACA	2.057 ± 0.0079	2.0488 ± 0.002
UCUACC	2.0547 ± 0.001	2.054 ± 0.018
UCUACG	1.891 ± 0.0021	2.01 ± 0.017

Variant	normalized RNA/DNA level without ligand (log10) [1]	normalized RNA/DNA level with ligand (log10) [2]
UCUACU	2.019 ± 0.0065	2.03 ± 0.029
ACGGAA	1.965 ± 0.0049	2.024 ± 0.0076
ACGGAG	1.839 ± 0.0062	2.029 ± 0.014
ACGGAC	2.018 ± 0.015	2.01 ± 0.03
UCGCUA	2.021 ± 0.015	2.07 ± 0.035
UCGCUU	2.033 ± 0.019	2.01 ± 0.081
UCGCUG	2.01 ± 0.021	2.06 ± 0.037
UCGCUC	2.04 ± 0.028	2.04 ± 0.059
GCUCUC	2.126 ± 0.0057	2.08 ± 0.039
GCUCUA	2.01 ± 0.024	2.03 ± 0.018
GCUCUU	2.038 ± 0.014	1.998 ± 0.011
UCUGAA	1.911 ± 0.0014	1.98 ± 0.05
UCUGAC	2.011 ± 0.0043	2.01 ± 0.052
CCUACU	2.062 ± 0.0069	2.04 ± 0.0079
CCUACG	2.072 ± 0.0081	2.0351 ± 0.0014
CCUACC	2.0594 ± 0.00016	2.04 ± 0.041
GCUCGG	2.034 ± 0.016	2.03 ± 0.026
GCUCGC	2.02 ± 0.027	2.0264 ± 0.00071
GCUCGA	2.039 ± 0.0067	2.02 ± 0.065
CCUCGC	2.08 ± 0.03	2.033 ± 0.017
CCUCGG	2.078 ± 0.0042	1.99 ± 0.012
CCUCGU	2.01 ± 0.037	2.01 ± 0.07
CCUCGA	1.998 ± 0.011	2.02 ± 0.029

Variant	normalized RNA/DNA level without ligand (log10) [1]	normalized RNA/DNA level with ligand (log10) [2]
CCGGAC	2.05 ± 0.0016	2.042 ± 0.016
CCGGAU	2.017 ± 0.0056	2.05 ± 0.059
CCGGAG	1.931 ± 0.0037	2.024 ± 0.011
CCGGAA	2.005 ± 0.0036	2.01 ± 0.052
ACGCUC	2.053 ± 0.015	2.05 ± 0.036
ACGCUA	2.013 ± 0.018	2.03 ± 0.06
ACGCUG	2.015 ± 0.0048	2.057 ± 0.015
CCGCUC	2.112 ± 0.0092	2.09 ± 0.081
CCGCUA	2.01 ± 0.019	2.02 ± 0.043
CCGCUG	2.047 ± 0.0097	2.067 ± 0.012
CCGCUU	2.04 ± 0.024	2.0508 ± 0.0014
ACUGAC	2.002 ± 0.0086	1.999 ± 0.0088
UCUAGU	1.984 ± 0.0028	2.04 ± 0.032
UCUAGA	2.05 ± 0.024	2.043 ± 0.0037
UCUAGC	2.03 ± 0.024	2.02 ± 0.051
UCUAGG	1.982 ± 0.015	2.05 ± 0.026
ACUAAU	1.985 ± 0.007	2.01 ± 0.03
ACUCCA	2.056 ± 0.0064	2.04 ± 0.054
ACUCCC	2.054 ± 0.0096	2.02 ± 0.048
ACUCCU	2.075 ± 0.0094	2.08 ± 0.05
ACUCCG	2.001 ± 0.014	2.03 ± 0.064
ACGUAU	1.943 ± 0.005	2.02 ± 0.008
ACGUAC	2.018 ± 0.0052	2.02 ± 0.046

Variant	normalized RNA/DNA level without ligand (log10) [1]	normalized RNA/DNA level with ligand (log10) [2]
CCUAUC	2.1 ± 0.023	2.0649 ± 0.0011
CCUAUU	2.038 ± 0.0071	2.04 ± 0.022
CCUAUA	2.029 ± 0.0081	2.01 ± 0.033
CCUAUG	2.04 ± 0.031	2.06 ± 0.028
UCGGGA	1.937 ± 0.012	2.03 ± 0.056
UCGGGC	2.06 ± 0.021	2.03 ± 0.055
UCGGGG	1.86 ± 0.027	1.99 ± 0.039
UCGGGU	1.9958 ± 0.001	2.03 ± 0.038
CCUCUU	2.033 ± 0.012	2.022 ± 0.0093
CCUCUG	2.035 ± 0.011	2 ± 0.04
CCUCUC	2.072 ± 0.018	2.04 ± 0.078
CCUCUA	2.029 ± 0.0036	2.03 ± 0.031
GCGUGA	1.999 ± 0.015	2.03 ± 0.038
GCGUGU	1.974 ± 0.0053	2.04 ± 0.053
GCGUGC	2.043 ± 0.019	2.03 ± 0.038
CCGUUG	1.99 ± 0.024	2.04 ± 0.044
CCGUUU	2.037 ± 0.0047	2.013 ± 0.02
CCGUUC	2.048 ± 0.0038	2.03 ± 0.071
CCGUUA	2.005 ± 0.0026	1.97 ± 0.055
CCUGAG	1.932 ± 0.019	1.97 ± 0.025
CCUGAA	2.0009 ± 0.0006	2 ± 0.044
CCUGAC	2 ± 0.0059	1.993 ± 0.0097
GCUAGC	2.035 ± 0.017	2.016 ± 0.012
